Where a chain is given by its changes, count along the chain named. Blank lines part the entries; values can stand above or below the binder they belong to.
Tests used:
Cynomolgus CEACAM5 = biological target: T1, Cynomolgus CEACAM5 (cynomolgus monkey); assay: SPR, anti-hFc capture, 37C, pH 7.4
T1 construct: also called cyno CEACAM5
Protocol: (§1) To determine the affinity and cross-reactivity of CEACAM5 TriNKET molecules, AB0411, AB0466, or AB0621 TriNKETs were captured using an anti-human Fc capture antibody (Cytiva, #BR100839) immobilized onto a Biacore CM5 standard surface sensor chip following manufacturer instructions. Human or cynomolgus CEACAM5 were titrated over captured AB0411, AB0466, and AB0621 as 2-fold serial dilutions starting from 300 nM. Association was monitored for 300 sec and dissociation was monitored for 600 sec. The assay was run at 37° C. at pH 7.4 and 6.0. The surface of the CM5 chip was regenerated with 10 mM glycine pH 1.5 for 20 sec at 100 μL/min.

human FcγRIIA H131 = biological target: T2, human FcγRIIA H131 (human, UniProt P12318 34-218, limits assumed); assay: SPR, AB0621 on Protein A chip, 25C, pH 7.4
T2 sequence (looked up): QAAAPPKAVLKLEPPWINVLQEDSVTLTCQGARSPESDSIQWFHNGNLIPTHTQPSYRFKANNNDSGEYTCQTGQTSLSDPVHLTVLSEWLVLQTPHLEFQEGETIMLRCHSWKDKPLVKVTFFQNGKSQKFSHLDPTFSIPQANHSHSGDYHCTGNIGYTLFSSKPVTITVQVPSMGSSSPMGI
Protocol: (§2) AB0621 was captured onto a Protein A chip (Cytiva, #29127556). Human FcγRs were titrated over captured AB0621 as 3-fold serial dilutions starting from 300 nM for FcγRI, 1000 nM for FcγRIIA R131 and H131, and 3000 nM for FcγRIIB and FcγRIIIB. Association was monitored for 120 sec and dissociation was monitored for 180 sec. Assays were run at 25° C. at pH 7.4. The surface of the chip was regenerated with 10 mM glycine pH 1.5 for 20 sec at 30 μL/min.

human FcγRI = human FcγRI (human, UniProt P12314 16-288, limits assumed); assay: SPR, AB0621 on Protein A chip, 25C, pH 7.4
Chain of human FcγRI (P12314 16-288 limits assumed): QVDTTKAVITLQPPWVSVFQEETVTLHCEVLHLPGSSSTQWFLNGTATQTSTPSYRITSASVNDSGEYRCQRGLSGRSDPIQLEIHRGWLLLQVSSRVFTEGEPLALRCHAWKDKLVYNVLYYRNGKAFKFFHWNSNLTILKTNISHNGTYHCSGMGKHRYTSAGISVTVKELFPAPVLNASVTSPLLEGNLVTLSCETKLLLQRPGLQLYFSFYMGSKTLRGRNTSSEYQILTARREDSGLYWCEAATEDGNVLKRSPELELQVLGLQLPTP
Protocol: as §2

human FcγRIIIB = human FcγRIIIB (human, UniProt O75015 17-200, limits assumed); assay: SPR, AB0621 on Protein A chip, 25C, pH 7.4
Chain of human FcγRIIIB (O75015 17-200 limits assumed): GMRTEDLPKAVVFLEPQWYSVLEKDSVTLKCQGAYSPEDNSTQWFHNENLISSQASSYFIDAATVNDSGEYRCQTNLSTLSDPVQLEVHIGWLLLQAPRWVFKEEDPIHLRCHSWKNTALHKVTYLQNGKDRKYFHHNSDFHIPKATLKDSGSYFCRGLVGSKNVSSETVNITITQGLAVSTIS
Protocol: as §2

human FcγRIIB = biological target: T3, human FcγRIIB (human, UniProt P31994 43-217, limits assumed); assay: SPR, AB0621 on Protein A chip, 25C, pH 7.4
T3 sequence (looked up): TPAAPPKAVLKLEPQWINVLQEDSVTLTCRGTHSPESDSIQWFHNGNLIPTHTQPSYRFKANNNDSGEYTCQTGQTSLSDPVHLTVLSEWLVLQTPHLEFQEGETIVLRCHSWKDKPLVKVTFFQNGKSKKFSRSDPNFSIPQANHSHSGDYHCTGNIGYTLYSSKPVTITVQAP
Protocol: as §2

human FcγRIIA R131 = biological target: T4, human FcγRIIA R131 (human, UniProt P12318 34-218, limits assumed); assay: SPR, AB0621 on Protein A chip, 25C, pH 7.4
T4 sequence (looked up): T2 sequence (looked up) with H134R
Protocol: as §2

Human CEACAM5 (K398) = biological target: T5, Human CEACAM5 (K398) (human, UniProt P06731 35-685, limits assumed); assay: SPR, anti-hFc capture, 37C, pH 7.4
T5 construct: also called K398 allele
T5 sequence: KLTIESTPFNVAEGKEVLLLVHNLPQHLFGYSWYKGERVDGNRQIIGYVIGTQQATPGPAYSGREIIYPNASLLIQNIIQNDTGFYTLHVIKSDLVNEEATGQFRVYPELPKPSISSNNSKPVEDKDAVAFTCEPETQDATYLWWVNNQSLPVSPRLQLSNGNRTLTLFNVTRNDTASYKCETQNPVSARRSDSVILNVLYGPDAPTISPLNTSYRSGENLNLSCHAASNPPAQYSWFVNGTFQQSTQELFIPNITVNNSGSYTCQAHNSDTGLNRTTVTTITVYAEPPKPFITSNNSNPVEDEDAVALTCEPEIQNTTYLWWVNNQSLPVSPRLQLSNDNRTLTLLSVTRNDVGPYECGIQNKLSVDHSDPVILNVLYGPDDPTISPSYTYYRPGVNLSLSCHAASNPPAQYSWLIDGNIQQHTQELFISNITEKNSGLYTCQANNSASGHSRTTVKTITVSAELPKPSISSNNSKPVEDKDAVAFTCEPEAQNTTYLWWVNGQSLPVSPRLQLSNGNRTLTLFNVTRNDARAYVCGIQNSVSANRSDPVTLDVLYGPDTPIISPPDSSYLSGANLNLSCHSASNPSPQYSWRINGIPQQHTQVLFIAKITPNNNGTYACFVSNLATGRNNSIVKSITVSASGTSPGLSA
Protocol: as §1

[1] = biological target: T6, human CD16A (FcγRIIIA) V158 (human, UniProt P08637 17-208, limits assumed, biotinylated in the assay of Table 21); assay: SPR (Biacore), AB0264 captured on a CM5 chip with immobilised human CEACAM5; 2 uM CD16A, then premix of 2 uM CD16A and 2 uM NKG2D-His
T6 construct: also called CD16A (V158/V176)
T6 sequence (P08637 17-208 F176V limits assumed): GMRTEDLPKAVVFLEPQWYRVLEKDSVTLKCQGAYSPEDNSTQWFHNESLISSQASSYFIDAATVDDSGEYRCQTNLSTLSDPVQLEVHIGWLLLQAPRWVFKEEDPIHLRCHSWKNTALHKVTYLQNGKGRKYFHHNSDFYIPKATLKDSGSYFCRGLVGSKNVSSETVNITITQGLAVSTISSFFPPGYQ
From the text: This surface was used to first stably capture AB0264 onto the chip surface. […] The ratio of binding signals (which are proportional to MWs) was approximately 5:1:1 which is consistent with a 1:1:1 molar stoichiometry of complex bound on the CEACAM5 surface.

Kd (Cynomolgus CEACAM5): 14 nM
kon (Cynomolgus CEACAM5): 61000 M⁻¹ s⁻¹
Kd (human FcγRIIA H131): 600 nM
Kd (human FcγRI): 14 nM
kon (human FcγRI): 2.6e+06 M⁻¹ s⁻¹
Kd (human FcγRIIB): 3300 nM
Kd (human FcγRIIA R131): 330 nM
B1: AB0621 F3' CEACAM5 TriNKET (bispecific antibody, human IgG1, kappa)
chain: DIVMTQSPDSLAVSLGERATINCKSSHSLLYGNFQNNYLAWYQQKPGQPPKLLIYWASTRESGVPDRFSGSGSGTDFTLTISSLQAEDVAVYYCQQYYSYPYTFGCGTKLEIKGGGGSGGGGSGGGGSGGGGSQVQLVQSGAEVKKPGASVKVSCKASGYTFTAYTIHWVRQAPGQCLEWMGYINPSSGYTEYNQKFKDRTTLTADTSISTAYMELSRLRSDDTAVYYCTREGGLLWFDYWGQGTLVTVSSGSDKTHTCPPCPAPELLGGPSVFLFPPKPKDTLMISRTPEVTCVVVDVSHEDPEVKFNWYVDGVEVHNAKTKPREEQYNSTYRVVSVLTVLHQDWLNGKEYKCKVSNKALPAPIEKTISKAKGQPREPRVYTLPPCRDELTKNQVSLTCLVKGFYPSDIAVEWESNGQPENNYKTTPPVLVSDGSFTLYSKLTVDKSRWQQGNVFSCSVMHEALHNHYTQKSLSLSPG
heavy: EVQLVESGGGLVKPGGSLRLSCAASGFTFSSYSMNWVRQAPGKGLEWVSSISSSSSYIYYADSVKGRFTISRDNAKNSLYLQMNSLRAEDTAVYYCARGAPIGAAAGWFDPWGQGTLVTVSSASTKGPSVFPLAPSSKSTSGGTAALGCLVKDYFPEPVTVSWNSGALTSGVHTFPAVLQSSGLYSLSSVVTVPSSSLGTQTYICNVNHKPSNTKVDKKVEPKSCDKTHTCPPCPAPELLGGPSVFLFPPKPKDTLMISRTPEVTCVVVDVSHEDPEVKFNWYVDGVEVHNAKTKPREEQYNSTYRVVSVLTVLHQDWLNGKEYKCKVSNKALPAPIEKTISKAKGQPREPQVCTLPPSRDELTENQVSLTCLVKGFYPSDIAVEWESNGQPENNYKTTPPVLDSDGSFFLYSWLTVDKSRWQQGNVFSCSVMHEALHNHYTQKSLSLSPG
light: DIQMTQSPSSVSASVGDRVTITCRASQGISSWLAWYQQKPGKAPKLLIYAASSLQSGVPSRFSGSGSGTDFTLTISSLQPEDFATYYCQQGVSFPRTFGGGTKVEIKRTVAAPSVFIFPPSDEQLKSGTASVVCLLNNFYPREAKVQWKVDNALQSGNSQESVTEQDSKDSTYSLSSTLTLSKADYEKHKVYACEVTHQGLSSPVTKSFNRGEC
binding result (human FcγRIIIB): no binding (tested: titrated from 3000 nM)

Kd (Human CEACAM5 (K398)): 13 nM
kon (Human CEACAM5 (K398)): 91000 M⁻¹ s⁻¹
binding result [1]: binds
B2: AB0264 F3' CEACAM5 TriNKET (bispecific antibody, human IgG1, kappa)
chain: B1 chain with S210P
heavy: B1 heavy
light: B1 light

— patent US20240124607A1 (Merck Sharp & Dohme, published 2024)
